Results: PMC11960969, “Mdga2 deficiency leads to an aberrant activation of BDNF/TrkB signaling that underlies autism-relevant synaptic and behavioral changes in mice” (PLOS Biology, 2025)

Tested on: hippocampal proteins
Assay: DIA quantification proteomics, hippocampus of Mdga2+/- vs WT mice
Parameters: species or system mouse
Conditions: S3 Table, downregulated DEPs; for log2FC: Mdga2+/- vs WT mouse hippocampus (HET-HIP-VS-WT-HIP), SE, pvalue and adj_pvalue in own columns c3-c5; for Class: regulation class of the protein, HET-HIP-VS-WT-HIP
How it was run: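 Hippocampi from 1.5–2-month-old male Mdga2+/− mice and WT littermates; 100 μg protein trypsin-digested, peptides high-pH fractionated. DDA-built spectral library, DIA by nano-LC–MS/MS with Spectronaut and mProphet QC. DEPs called at fold change >1.1 and p <0.05.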

| Molecule | log2FC | Class |
| --- | --- | --- |
| sp¦Q9ERI2¦RB27A_MOUSE (protein, UniProt Q9ERI2 2-221, looked up) Ras-related protein Rab-27A: SDGDYDYLIKFLALGDSGVGKTSVLYQYTDGKFNSKFITTVGIDFREKRVVYRANGPDGAVGRGQRIHLQLWDTAGQERFRSLTTAFFRDAMGFLLLFDLTNEQSFLNVRNWISQLQMHAYCENPDIVLCGNKSDLEDQRAVKEEEARELAEKYGIPYFETSAANGTNISHAIEMLLDLIMKRMERCVDKSWIPEGVVRSNGHTSADQLSEEKEKGLCGC | -2.259 | Down |
| sp¦Q3TBL6¦TP8L3_MOUSE (protein, UniProt Q3TBL6 1-204, looked up) Tumor necrosis factor …: MDSDSGEQSEGEPGTAAGPHVFSSKNLALQAQKKILSKIASKTVANMLIDDTSSEIFDELYKVTEIHTHNKKEAHKIMKDAIKVAIKIGILYRNKQFSQEEVIIVEKLRKKLNQTAMTMVSFYEVEYTFDTNVLSKLLHECKDLVHELVQRHLTPRTHGRINHVFNHFADVEFLSTLYGPHGNCRPNLKRICEGINKLLDDKIL | -2.713 | Down |
| sp¦P06802¦ENPP1_MOUSE (protein, UniProt P06802 1-906, looked up) Ectonucleotide …: MERDGDQAGHGPRHGSAGNGRELESPAAASLLAPMDLGEEPLEKAERARPAKDPNTYKVLSLVLSVCVLTTILGCIFGLKPSCAKEVKSCKGRCFERTFSNCRCDAACVSLGNCCLDFQETCVEPTHIWTCNKFRCGEKRLSRFVCSCADDCKTHNDCCINYSSVCQDKKSWVEETCESIDTPECPAEFESPPTLLFSLDGFRAEYLHTWGGLLPVISKLKNCGTYTKNMRPMYPTKTFPNHYSIVTGLYPESHGIIDNKMYDPKMNASFSLKSKEKFNPLWYKGQPIWVTANHQEVKSGTYFWPGSDVEIDGILPDIYKVYNGSVPFEERILAVLEWLQLPSHERPHFYTLYLEEPDSSGHSHGPVSSEVIKALQKVDRLVGMLMDGLKDLGLDKCLNLILISDHGMEQGSCKKYVYLNKYLGDVNNVKVVYGPAARLRPTDVPETYYSFNYEALAKNLSCREPNQHFRPYLKPFLPKRLHFAKSDRIEPLTFYLDPQWQLALNPSERKYCGSGFHGSDNLFSNMQALFIGYGPAFKHGAEVDSFENIEVYNLMCDLLGLIPAPNNGSHGSLNHLLKKPIYNPSHPKEEGFLSQCPIKSTSNDLGCTCDPWIVPIKDFEKQLNLTTEDVDDIYHMTVPYGRPRILLKQHHVCLLQQQQFLTGYSLDLLMPLWASYTFLRNDQFSRDDFSNCLYQDLRIPLSPVHKCSYYKSNSKLSYGFLTPPRLNRVSNHIYSEALLTSNIVPMYQSFQVIWHYLHDTLLQRYAHERNGINVVSGPVFDFDYDGRYDSLEILKQNSRVIRSQEILIPTHFFIVLTSCKQLSETPLECSALESSAYILPHRPDNIESCTHGKRESSWVEELLTLHRARVTDVELITGLSFYQDRQESVSELLRLKTHLPIFSQED | -2.366 | Down |
| sp¦Q8K4I3¦ARHG6_MOUSE (protein, UniProt Q8K4I3 1-771, looked up) Rho guanine nucleotide …: MNPEERLVTWLISLGVLESPKKTVCDPEEFLKSSLKNGVVLCKLINRLLPGSVEKYCLEPQTEADCIDNINDFLKGCATLQVEVFEPDDLYSGANFSKVLNTLLAVNKATEDQLSERPCGRSSSLSAATSSQTNPQVAVPSTAPEQHSEEKAEMTENGSHQLIVKARFNFKQTNEDELSVCKGDIIYVTRVEEGGWWEGTLNGRTGWFPSNYVREIKPSERPLSPKAIKGFDTAPLTKNYYTVVLQNILDTEKEYAKELQSLLVTYLRPLQSNNNLSTVEFTCLLGNFEEVCTFQQTLCQALEECSKFPENQHKVGGCLLNLMPHFKSMYLAYCANHPSAVNVLTQHSDDLERFMENQGASSPGILILTTSLSKPFMRLEKYVTLLQELERHMEDTHPDHQDILKAIIAFKTLMGQCQDLRKRKQLELQILSEPIQAWEGDDIKTLGNVIFMSQVVMQHGACEEKEERYFLLFSSVLIMLSASPRMSGFMYQGKIPIAGMVVNRLDEIEGSDCMFEITGSTVERIVVHCNNNQDFQEWMEQLNRLTKGPTSCGSLSKTSSSSCSTHSSFSSTGQPRGPLEPPQIIKPWSLSCLRPAPPLRPSAALGYKERMSYILKESSKSPKTMKKFLHKRKTERKASEEEYVIRKSTAALEEDAQILKVIEAYCTSASFQQGTRKDSVPQVLLPEEEKLIIEETRSNGQTIIEEKSLVDTVYALKDEVKELKQENKKMKQCLEEELKSRKDLEKLVRKLLKQTDECIRSESSSKTSILQ | -1.975 | Down |
| sp¦P05532¦KIT_MOUSE (protein, UniProt P05532 25-979, looked up) Mast/stem cell growth factor …: SQPSASPGEPSPPSIHPAQSELIVEAGDTLSLTCIDPDFVRWTFKTYFNEMVENKKNEWIQEKAEATRTGTYTCSNSNGLTSSIYVFVRDPAKLFLVGLPLFGKEDSDALVRCPLTDPQVSNYSLIECDGKSLPTDLTFVPNPKAGITIKNVKRAYHRLCVRCAAQRDGTWLHSDKFTLKVRAAIKAIPVVSVPETSHLLKKGDTFTVVCTIKDVSTSVNSMWLKMNPQPQHIAQVKHNSWHRGDFNYERQETLTISSARVDDSGVFMCYANNTFGSANVTTTLKVVEKGFINISPVKNTTVFVTDGENVDLVVEYEAYPKPEHQQWIYMNRTSANKGKDYVKSDNKSNIRYVNQLRLTRLKGTEGGTYTFLVSNSDASASVTFNVYVNTKPEILTYDRLINGMLQCVAEGFPEPTIDWYFCTGAEQRCTTPVSPVDVQVQNVSVSPFGKLVVQSSIDSSVFRHNGTVECKASNDVGKSSAFFNFAFKGNNKEQIQAHTLFTPLLIGFVVAAGAMGIIVMVLTYKYLQKPMYEVQWKVVEEINGNNYVYIDPTQLPYDHKWEFPRNRLSFGKTLGAGAFGKVVEATAYGLIKSDAAMTVAVKMLKPSAHLTEREALMSELKVLSYLGNHMNIVNLLGACTVGGPTLVITEYCCYGDLLNFLRRKRDSFIFSKQEEQAEAALYKNLLHSTEPSCDSSNEYMDMKPGVSYVVPTKTDKRRSARIDSYIERDVTPAIMEDDELALDLDDLLSFSYQVAKGMAFLASKNCIHRDLAARNILLTHGRITKICDFGLARDIRNDSNYVVKGNARLPVKWMAPESIFSCVYTFESDVWSYGIFLWELFSLGSSPYPGMPVDSKFYKMIKEGFRMVSPEHAPAEMYDVMKTCWDADPLKRPTFKQVVQLIEKQISDSTKHIYSNLANCNPNPENPVVVDHSVRVNSVGSSASSTQPLLVHEDA | -2.731 | Down |
| sp¦Q922B6¦TRAF7_MOUSE (protein, UniProt Q922B6 1-594, looked up) E3 ubiquitin-protein ligase …: MPPINTPRRSDSAISVRSLHSESSMSLRSTFSLPEEEEEPEPLVFAEQPSVKLCCQLCCSVFKDPVITTCGHTFCRRCALKSEKCPVDNAKLTVVVNNIAVAEQIGELFIHCRHGCHAAGTGKPGVFEVDPRGCPFTIKLSARKDHESSCDYRPVRCPNNPSCPPLLKMNLEAHLKECEHIKCPHSKYGCTFIGNQDTYETHLETCRFEGLKEFLQQTDDRFHEMHVALAQKDQEIAFLRSMLGKLSEKIDQLEKSLELKFDVLDENQSKLSEDLMEFRRDASMLNDELSHINARLNMGILGSYDPQQIFKCKGTFVGHQGPVWCLCVYSMGDLLFSGSSDKTIKVWDTCTTYKCQKTLEGHDGIVLALCIQGCKLYSGSADCTIIVWDIQNLQKVNTIRAHDNPVCTLVSSHNMLFSGSLKAIKVWDIVGTELKLKKELTGLNHWVRALVAAQSYLYSGSYQTIKIWDIRTLDCIHVLQTSGGSVYSIAVTNHHIVCGTYENLIHVWDIESKEQVRTLTGHVGTVYALAVISTPDQTKVFSASYDRSLRVWSMDNMICTQTLLRHQGSVTALAVSRGRLFSGAVDSTVKVWTC | -2.686 | Down |
| sp¦P60755¦MDGA2_MOUSE (protein, UniProt P60755 26-924, looked up) MAM domain-containing …: PPTVRIVHSGLACNIEEERYSERVYTIREGETLELTCLVTGHPRPQIRWTKTAGSASDRFQDSSVFNETLRITNIQRHQGGRYYCKAENGLGSPAIKSIRVDVYYLDDPVVTVHQSIGEAKEQFYYERTVFLRCVANSNPPVRYSWRRGQEVLLQGSDKGVEIYEPFFTQGETKILKLKNLRPQDYANYSCIASVRNVCNIPDKMVSFRLSNKTASPSIKLLVDDPIVVNPGEAITLVCVTTGGEPTPSLTWVRSFGTLPEKIVLNGGTLTIPAITSDDAGTYSCIANNNVGNPAKKSTNIIVRALKKGRFWITPDPYHKDDNIQIGREVKISCQVEAVPSEELTFSWFKNGRPLRSSERMVITQTDPDVSPGTTNLDIIDLKFTDFGTYTCVASLKGGGISDISIDVNISSSTVPPNLTVPQEKSPLVTREGDTIELQCQVTGKPKPIILWSRADKEVAMPDGTMQMESYDGTLRIVNVSREMSGMYRCQTSQYNGFNVKPREALVQLIVQYPPAVEPAFLEIRQGQDRSVTMSCRVLRAYPIRVLTYEWRLGNKLLRTGQFDSQEYTEYPLKSLSNENYGVYNCSIINEAGAGRCSFLVTGKAYAPEFYYDTYNPVWQNRHRVYSYSLQWTQMNPDAVDRIVAYRLGIRQAGQQRWWEQEIKINGNIQKGELITYNLTELIKPEAYEVRLTPLTKFGEGDSTIRVIKYTGEFHCGFEDGNICLFTQDDTDNFDWTKQSTATRNTKYTPNTGPSADRSGSKEGFYMYIETSRPRLEGEKARLLSPVFSIAPKNPYGPTNSAYCFSFFYHMYGQHIGVLNVYLRLKGQTTIENPLWSSSGNKGQRWNEAHVNIYPITSFQLIFEGIRGPGIEGDIAIDDVSIAEGECAKQDLPTKNSVD | -3.064 | Down |
| sp¦Q3UH99¦SHSA6_MOUSE (protein, UniProt Q3UH99 31-525, looked up) Protein shisa-6: ARGRSGNRTLNAGAVGGRRAGGALARGGRELNSTARASGVPEAGSRRGQSAAAAAAAAAAASATVTYETCWGYYDVSGQYDKEFECNNSESGYLYCCGTCYYRFCCKKRHEKLDQRQCTNYQSPVWVQTPSTKVVSPGPENKYDPEKDKTNFTVYITCGVIAFVIVAGVFAKVSYDKAHRPPREMNIHRALADILRQQGPIPIAHCERETISAIDTSPKENTPVRSTSKNHYTPVRTAKQTPGDRQYNHPILSSATQTPTHEKPRMNNILTSATEPYDLSFSRSYQNLAHLPPSYESAVKTNPSKYSSLKRLTDKEADEYYMRRRHLPDLAARGTLPLNVIQMSQQKPLPRERPRRPIRAMSQDRVLSPRRGLPDEFGMPYDRILSDEQLLSTERLHSQDPLLSPERTAFPEQSLSRAISHTDVFVSTPVLDRYRMTKMHSHPSASNNSYATLGQSQTAAKRHAFASRRHNTVEQLHYIPGHHTCYTASKTEVTV | -2.769 | Down |
